Laboratory results from patent US20200299408A1 (Genentech, published 2020).
Residue numbers refer to the chain shown, from its start. In names and notes the source's numbering stands. Several values for one entry are separate records, joined by “and”; a condition that tells them apart may be missing. Equal values may be shown once. Read-outs that look alike come from different tables or passages of the source. Values belong to the binder of their own block, whether it stands above or below them.

Legend:
[1] = target: T1, commercial CD3ε (Creative Biomart, Catalog Number CD3E-2194H) (human, UniProt P07766); assay: binding affinity on commercial CD3ε (Creative Biomart CD3E-2194H); method not stated in the legend
T1 construct: commercial recombinant protein; also called commercial CD3E

[2] = target: T2, human CD3 on T cells (human, UniProt P07766 22-207); assay: FACS on Jurkat cells (CD3), anti-huIgG-PE; number printed beside the curve without a quantity name, taken as EC50
T2 construct: whole, on cells; On cells CD3ε stands in the CD3/TCR complex; also called CD3 antigen; CD3ε
Procedure: (§1) Binding affinities for the each of the CD3/CD20 TDBs were tested by Biacore or FACS analysis, as described above for the anti-CD3 antibodies. Briefly, for Biacore binding assays, human CD3εγ was immobilized on Biacore Series S CM5 sensor chip using the amine coupling kit from Biacore and CD3/CD20 TDBs or Fab variants thereof were in the flow through. For FACS binding assays, either Bjab cells (for B cell antigens) or Jurkat cells (for CD3 antigen) were incubated with various concentrations of TDB antibodies at 4° C. for 30 minutes, then cells were washed and incubated with 2nd antibody (anti-huIgG-PE; BD Bioscience) for another 15 minutes, before cells were washed again and ready for FACS analysis.

[3] = target: T2, human CD3 on T cells; assay: as above; remark: listed apart in the source
Procedure: as §1

[4] = target: T2, human CD3 on T cells; assay: as above; remark: listed apart in the source
Procedure: as §1

[5] = target: T1, commercial CD3ε (Creative Biomart, …); assay: binding affinity on commercial CD3ε (Creative Biomart CD3E-2194H); method not stated in the legend; remark: listed apart in the source
[6] = target: T2, human CD3 on T cells; assay: Scatchard; table 'Monovalent Binding Affinity'; the partner arm is not given, the TDB is taken from legend paragraph 149, p-1410 and Figure 16; cells not named
[7] = target: T2, human CD3 on T cells; assay: Scatchard; table headed 'Bivalent Binding Affinity', though its footnote reads 'monovalent binding Kd measured by scatchard'; cells not named

Kd [5]: 1.1 nM
B3: murine 41D9 (antibody, V domains shown)
VH: QIQLVQSGPELKKPGETVKISCKASGYTFTNYGMNWVKQAPGKGLKWMGWINTNTGKPTYAEEFKGRFVFSLETSASTTYLQINNLKNEDTATYFCARRGDYRYAWFLYWGQGTLVTVSA
VL: QAVVTQESALTTSPGGTVILTCRSSTGAVTTSNYANWVQEKPDHLFTGLIGGTSNRAPGVPVRFSGSLIGDKAALTITGAQTEDDAMYFCALWYSTHFVFGGGTKVTV
notes: also called 41D9a

Kd [6]: 318 nM | Kd [7]: 40 nM
B5: K&H 2H7v16/hu UCHT1vM1 (bispecific antibody, V domains shown)
VH 1: EVQLVESGGGLVQPGGSLRLSCAASGYTFTSYNMHWVRQAPGKGLEWVGAIYPGNGDTSYNQKFKGRFTISVDKSKNTLYLQMNSLRAEDTAVYYCARVVYYSNSYWYFDVWGQGTLVTVSS
VL 1: DIQMTQSPSSLSASVGDRVTITCRASSSVSYMHWYQQKPGKAPKPLIYAPSNLASGVPSRFSGSGSGTDFTLTISSLQPEDFATYYCQQWSFNPPTFGQGTKVEIK
VH 2: EVQLVESGGGLVQPGGSLRLSCAASGYSFTGYTMNWVRQAPGKGLEWVALINPYKGVSTYADSVKGRFTISVDKSKNTAYLQMNSLRAEDTAVYYCARSGYYGDSDWYFDVWGQGTLVTVSS
VL 2: DIQMTQSPSSLSASVGDRVTITCRASQDIRNYLNWYQQKPGKAPKLLIYYTSRLESGVPSRFSGSGSGTDYTLTISSLQPEDFATYYCQQGNTLPWTFGQGTKVEIK
modifications: Knob-into-hole full-length IgG; constant regions are not in the letters.
notes: also called CD3/CD20 TDB 2H7v16/UCHT1vM1

More lines, now with the values behind:

B1: humanized 38E4 variant: VH1 graft + R71A / K4 graft + P43S (antibody, V domains shown)
VH: EVQLVQSGAEVKKPGASVKVSCKASGFTFTSYYIHWVRQAPGQGLEWIGWIYPENDNTKYNEKFKDRVTITADTSTSTAYLELSSLRSEDTAVYYCARDGYSRYYFDYWGQGTLVTVSS
VL: DIVMTQSPDSLAVSLGERATINCKSSQSLLNSRTRKNYLAWYQQKPGQSPKLLIYWTSTRKSGVPDRFSGSGSGTDFTLTISSLQAEDVAVYYCKQSFILRTFGQGTKVEIK
Kd [1]: 0.5 nM

B2: KH CD20 2H7v16/hu40G5c (bispecific antibody, V domains shown)
VH 1: B5 VH 1
VL 1: B5 VL 1
VH 2: B1 VH with F27Y, S31N, E54G, N55D, D56G, D66G, V68A, I70L, G100S, R103N
VL 2: B1 VL with S49P, T57A, K61E, K95T
modifications: Knob-into-hole full-length IgG; constant regions are not in the letters.
notes: also called KH CD20 2H7v16/40G5c; CD20KH (2H7v16/40G5c)
EC50 [2]: 1.25 µg/mL and 8.3 nM | EC50 [3]: 1.6 µg/mL and 11 nM | EC50 [4]: 1.21 µg/mL

B4: murine 38E4 (antibody, V domains shown)
VH: QVQLQQSGPELVKPGASVTISCTASGFTFTSYYIHWVRQRPGQGLEWIGWIYPENDNTKYNEKFKDKATLTADTSSSTAYMQLSSLTSEDSAVYYCARDGYSRYYFDYWGQGTTLTVSS
VL: DIVMTQSPSFLAVSAGEKVTMSCKSSQSLLNSRTRKNYLAWYQQRPGQSPKLLIYWTSTRKSGVPDRFTGSGSGTDFTLTISSVQAEDLAIYYCKQSFILRTFGGGTKLEIK
Kd [1]: 0.75 nM
